Biological target: SARS-CoV-2 BQ.1 Spike antigen (SARS-CoV-2 Omicron BQ.1)
Test: cell-based or functional assay

B1: Parental mAb 2 (antibody, V domains shown)
VH: QMQLMQSGAEVKKPGASVTVSCKASGDTFSDYRIHWVRQAPGQGLEWMGRMNPKSGDTNFAQKFQGRVTMTRDMSINTAYMTLSGLTFDDTALYYCASLLIVGGFDPLDDFEVWGQGTMVTISS
VL: QSALTQPPSASGSPGQSVTISCSGTSSDVGGYNFVSWYQHHPGKAPKILIYEVTKRPSGVPDRFSGSKSGNTASLTVSGLQAEDEADYYCSSYGGTNNLLFGGGTKLTVL
- Pseudovirion neutralization IC50: 10.1 mg/L

— patent US20260234222A1
